The data set concerns MS2 coat protein. Briefly: apparent KD of MS2 coat protein; designed switch direction (-1 OFF switch, 1 ON switch): 1; higher = weaker reporter binding. A digest of the protocol:
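Each step of the titration lasted 0.8–1.5 h at the lowest concentration and 10–20 min at the highest. The protein, SNAP-549-labelled MS2 coat protein, went from 0.7 or 1.5 nM doubling to 3 µM over RNA switches transcribed on Illumina chips by stalled E. coli RNA polymerase. Normalised cluster fluorescence was curve-fitted, and the per-design median over clusters is given as apparent KD.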

Setting [1] is: Eterna round: R95, input ligand: FMN 200 uM.
[2] abbreviates: Eterna round: R95, input ligand: microRNA oligo, concentration not stated.
[3] abbreviates: Eterna round: R95, input ligand: none.
[4] abbreviates: input ligand: microRNA oligo, concentration not stated.

For the sequence “UGGAUCUAGGCUUGCCUGGGUCCAUGUUGACAUGAGGAUCACCCAUGUGUAUUUUUUAAGCUUUUUGUUUGUCAACU [JL A Humble Attempt mod 9] (puzzle: Sensor for hsa-mir-208a)”, the “apparent KD of MS2 coat protein” value reads like this: under setting [1], 28.3 nM; under setting [2], 12.5 nM; under setting [3], 29.3 nM.
Regarding “UGGCUCAGACGAGGAUAUAUGUGGUCACAUGAGGAUCACCCAUGUCUCGAGCUUCGGCUCGAGGCAUAGAAGGCGUCUGAGCCU [SSNG2/5-A3] (Eterna round: R96, puzzle: Same State NG 2)”, the “apparent KD of MS2 coat protein” value reads like this: (input ligand: FMN 200 uM) 200 nM; under setting [4], 7.4 nM; (input ligand: none) 148 nM.
In the same order, the values of “UGGCUCAGACUAGGAUAUAUGUGGUCACAUGAGGAUCACCCAUGUCUCGAGCUUCGGCUCGAGGCAUAGAAGGAGUCUGAGCCU [SSNG2/5-D3] (Eterna round: R96, puzzle: Same State NG 2)” are 249 nM, 15.3 nM and 59.9 nM.
Consider “UGGCUCAGACUAGGAUAUGAUCAUGGCGCUUCGGCGCAUACAUGAGGAUCACCCAUGUAAAGUGAUCAGAAGGAGUCUGAGCCU [SSNG2/7-C3] (Eterna round: R96, puzzle: Same State NG 2)”, for which the “apparent KD of MS2 coat protein” value (input ligand: FMN 200 uM) came to 14.2 nM, the “apparent KD of MS2 coat protein” value under setting [4] was 10.6 nM and the “apparent KD of MS2 coat protein” value (input ligand: none) was found to be 19.7 nM.
Take “UGGCUCAGAGCAGGAUAUAUGUGAUCACAUGAGGAUCACCCAUGUCUCGAGCUUCGGCUCGAGACAUAGAAGGGCUCUGAGCCA [SSNG2/3-B2] (Eterna round: R96, puzzle: Same State NG 2)”: the “apparent KD of MS2 coat protein” value is 23.3 nM (input ligand: FMN 200 uM), 21.8 nM under setting [4] and 22.5 nM (input ligand: none).
For “UGGCUCAGAGCAGGAUAUAUGUGGUCACAUGAGGAUCACCCAUGUCUCGAGCUUCGGCUCGAGGCAUAGAAGGGCUCUGAGCCU [SSNG2/5-B3] (Eterna round: R96, puzzle: Same State NG 2)”, in that order: 704 nM, 21.4 nM and 85.9 nM.
In the same order, the values of “UGGCUGGUGCUAGGAUAUGCAUGAGGCAUCCUCGUAGAAGGAGCACGACAUGAGGAUCACCCAUGUAGCCGUCCGUAGACGGCU [salish99_SSNG1_r04_010] (Eterna round: R96, puzzle: Same State NG 1)” are 673 nM, 348 nM and 1060 nM.
Turning to “UGGUACAUGGGAGGAUAUCUCAUGGUGACAUGAGGAUCACCCAUGUAGUUGGUGCCGAAAGGCUGAGAGAAGGCCCAUGUACCU [JL SSNG1 3.76] (Eterna round: R96, puzzle: Same State NG 2)”, the “apparent KD of MS2 coat protein” value reads like this: (input ligand: FMN 200 uM) 62.9 nM; under setting [4], 59.3 nM; (input ligand: none) 99.9 nM.
For “UGUCCAGCCUGAGCUGGACAAAAGCAUGUACAUGAGGAUCACCCAUGUUCAUGUACAAGCUUUUUGCUCGUCUUACC [salish99_208a_r3_083] (puzzle: Sensor for hsa-mir-208a)”, the “apparent KD of MS2 coat protein” value under setting [1] was 464 nM, the “apparent KD of MS2 coat protein” value under setting [2] is 15.9 nM and the “apparent KD of MS2 coat protein” value under setting [3] stood at 610 nM.
For “UGUCCAGCCUGAGCUGGACAAAAGCAUGUACAUGAGGAUCACCCAUGUUCAUGUACAAGCUUUUUGCUCGUCUUAGU [salish99_208a_r3_065] (puzzle: Sensor for hsa-mir-208a)”, in that order: 489 nM, 13.8 nM and 619 nM.
For the sequence “UGUUGGUUUUUGCUCGUUUUUUGUGUUGAACAUGAGGAUCACCCAUGUAUUGUACAGUCCAGUUUGGUAAUGGUGCG [JR_SHM208A_Sub046] (puzzle: Sensor for hsa-mir-208a)”, the “apparent KD of MS2 coat protein” value by setting is: under setting [1], 41.6 nM; under setting [2], 31.4 nM; under setting [3], 57.5 nM.
For “UGUUGUAUUACAGGAUAUCUAGUAUUUUUAUUAAGAGAAGGGUAUUCACAUGAGGAUCACCCAUGUAUAUACGAGGAAGUUGUG [JMF's solution 54] (Eterna round: R96, puzzle: Same State NG 1)”, under setting [4], the “apparent KD of MS2 coat protein” value turned out to be 33.7 nM.
Same read-out and setting: the figure for “UGUUGUAUUACAGGAUAUCUAUGAUUUUUAUUUAGAGAAGGGUAUUCACAUGAGGAUCACCCAUGUAUAUACGAGGAAGUUGUG [JMF's solution 11] (Eterna round: R96, puzzle: Same State NG 1)” is 36.8 nM; for “UGUUGUAUUACAGGAUAUCUAUUAGUAUUAUUUAGAGAAGGGUAUUCACAUGAGGAUCACCCAUGUAUAUACGAGGAAGUUGUG [JMF's solution 89] (Eterna round: R96, puzzle: Same State NG 1)” it is 34.8 nM.
In the case of “UGUUGUAUUACAGGAUAUCUAUUAGUUUGAUUUAGAGAAGGGUAUUCACAUGAGGAUCACCCAUGUAUAUACGAGGAAGUUGUG [JMF's solution 94] (Eterna round: R96, puzzle: Same State NG 1)”, the “apparent KD of MS2 coat protein” value under setting [4] is 41.4 nM.
For “UGUUGUAUUACAGGAUAUCUAUUAGUUUUAAUUAGAGAAGGGUAUUCACAUGAGGAUCACCCAUGUAUAUACGAGGAAGUUGUG [JMF's solution 98] (Eterna round: R96, puzzle: Same State NG 1)”, the “apparent KD of MS2 coat protein” value under setting [4] came to 33.8 nM.
Still for that read-out and setting: the figure for “UGUUGUAUUACAGGAUAUCUAUUAUUUUUGUUUAGAGAAGGGUAUUCACAUGAGGAUCACCCAUGUAUAUACGAGGAAGUUGUG [JMF's solution 24] (Eterna round: R96, puzzle: Same State NG 1)” is 37.6 nM; for “UGUUGUAUUACAGGAUAUCUAUUGUUUUUAUAUAGAGAAGGGUAUUCACAUGAGGAUCACCCAUGUAUAUACGAGGAAGUUGUG [JMF's solution 84] (Eterna round: R96, puzzle: Same State NG 1)” it is 33.2 nM.
On to “UGUUGUAUUACAGGAUAUCUAUUGUUUUUAUGUAGAGAAGGGUAUUCACAUGAGGAUCACCCAUGUAUAUACGAGGAAGUUGUG [JMF's solution 85] (Eterna round: R96, puzzle: Same State NG 1)”, for which the “apparent KD of MS2 coat protein” value turned out to be 53.2 nM (input ligand: FMN 200 uM), 36.6 nM under setting [4] and 48.8 nM (input ligand: none).
In the same order, the values of “UGUUGUUAAUUAGGAUAUGGUCACAUGAGGAUCACCCAUGUAAUGUCGAUGCUAUGUGGAUCCGAUCAGAAGGAAUGGCUAACA [SameState NG2 #95] (Eterna round: R96, puzzle: Same State NG 2)” are 201 nM, 121 nM and 204 nM.
For “UUAACAUGACGAGGAUAUCAUUUAUAUCUUGAUUGAGAAGGCGUUCUUUUUUUUACCUAACAUGAGGAUCACCCAUGUGACAGU [JR_SSNG1_Sub051] (Eterna round: R96, puzzle: Same State NG 1)”, in that order: 12.4 nM, 13.7 nM and 17.6 nM.
As to “UUAACAUGAGGAUCACCCAUGUAUACGGAGUUUGCAAUUUGACAGGAUAUUGAAGAUCUAUAUAGCAAGAAGGGUCGUUAGUCU [JR_SSNG3_Sub006] (Eterna round: R96, puzzle: Same State NG 3)”, the “apparent KD of MS2 coat protein” value (input ligand: FMN 200 uM) came out at 47.5 nM, the “apparent KD of MS2 coat protein” value under setting [4] stood at 32.6 nM and the “apparent KD of MS2 coat protein” value (input ligand: none) was determined as 44.7 nM.

Source of the values: the supplement of paper PMC9170038.
